US20250154272A1 (Astellas, published 2025)
Like-named read-outs stand apart in the source and are kept apart here.

T1: monkey CD137-His tag-3×FLAG tag fusion protein (monkey)
T1 construct: Residues 1-183 are the encoded extracellular region as stated; also called Monkey CD137-His-3 × FLAG
T1 chain: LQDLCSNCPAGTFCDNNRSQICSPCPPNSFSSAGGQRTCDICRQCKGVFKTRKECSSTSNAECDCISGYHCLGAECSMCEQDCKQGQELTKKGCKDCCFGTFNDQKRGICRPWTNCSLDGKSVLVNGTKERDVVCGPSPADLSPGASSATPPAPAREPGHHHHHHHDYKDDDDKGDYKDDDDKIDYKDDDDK

T2: human CLDN4 expressed on CHO-K1 cells (human, UniProt O14493 1-209)
T2 construct: whole, on cells; also called human CLDN4 expressing CHO-K1
T2 sequence (looked up): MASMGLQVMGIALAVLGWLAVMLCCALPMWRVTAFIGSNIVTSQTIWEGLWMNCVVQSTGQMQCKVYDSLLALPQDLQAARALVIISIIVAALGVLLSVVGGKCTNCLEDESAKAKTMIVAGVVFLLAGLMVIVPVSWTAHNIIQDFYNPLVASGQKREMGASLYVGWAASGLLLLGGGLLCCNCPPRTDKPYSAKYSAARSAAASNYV

T3: human EpCAM-Myc-DDK expressed on CHO-K1 cells (human, UniProt P16422 24-314)
T3 construct: whole, on cells; also called EpCAM expressing cells; not shown: Myc-DDK tag of the ORIGENE construct
T3 sequence (looked up): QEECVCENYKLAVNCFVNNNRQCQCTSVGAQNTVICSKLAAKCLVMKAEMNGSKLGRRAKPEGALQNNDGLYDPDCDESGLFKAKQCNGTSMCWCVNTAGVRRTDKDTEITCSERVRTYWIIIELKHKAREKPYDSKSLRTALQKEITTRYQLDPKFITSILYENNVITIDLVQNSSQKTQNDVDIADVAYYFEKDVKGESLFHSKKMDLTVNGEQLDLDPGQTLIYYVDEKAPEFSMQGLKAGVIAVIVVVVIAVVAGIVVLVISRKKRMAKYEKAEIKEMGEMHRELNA

T4: human CLDN4-Myc-DDK expressed on CHO-K1 cells (human, UniProt O14493 1-209)
T4 construct: whole, on cells; also called human CLDN4-Myc-DDK expressing CHO-K1 cells; not shown: Myc-DDK tag of the ORIGENE construct
T4 sequence (looked up): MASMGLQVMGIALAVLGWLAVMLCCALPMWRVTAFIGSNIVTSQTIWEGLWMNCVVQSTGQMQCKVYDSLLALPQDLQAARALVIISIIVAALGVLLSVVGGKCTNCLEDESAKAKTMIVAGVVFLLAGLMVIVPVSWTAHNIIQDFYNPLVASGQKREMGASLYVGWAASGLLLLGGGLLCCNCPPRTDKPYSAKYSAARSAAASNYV


What was measured:
[1] = biological target: T1, monkey CD137-His tag-3×FLAG tag fusion …; experiment: SPR, Biacore T200, antibody captured on Protein A chip, CD137 as analyte
[2] = biological target: T5, human CD137-His tag protein (R&D Systems, 9220-4B) (human, UniProt Q07011 24-186); experiment: as above
T5 construct: Bought protein; not shown: His tag of the bought protein

[3] = biological target: T5, human CD137-His tag protein (R&D …); experiment: ELISA, human CD137-His tag protein immobilized on the plate, anti-human IgG Fc-HRP, A450-A570
[4] = biological target: T5, human CD137-His tag protein (R&D …); experiment: as above; remark: listed apart in the source
[5] = biological target: T2, human CLDN4 expressed on CHO-K1 cells; experiment: flow cytometry on human CLDN4 expressing CHO-K1, apparent KD
[6] = biological target: T5, human CD137-His tag protein (R&D …); experiment: ELISA, human CD137-His tag protein immobilized on the plate, anti-human IgG Fc-HRP, A450-A570; remark: listed apart in the source
[7] = biological target: T3, human EpCAM-Myc-DDK expressed on CHO-K1 …; experiment: flow cytometry of the clone supernatant on human EpCAM-Myc-DDK expressing CHO-K1 cells
[8] = biological target: T4, human CLDN4-Myc-DDK expressed on CHO-K1 …; experiment: binding experiment on human CLDN4-Myc-DDK expressing CHO-K1 cells

Kd [1] | koff [1] | kon [1] | Kd [2] | koff [2] | kon [2] | EC50 (read off the curve) [3] | EC50 (read off the curve) [4] | Kd [5] | EC50 (read off the curve) [6] | binding result [7] | binding result [8] | Binder
10.7 nM | 0.00191 s⁻¹ | 179000 M⁻¹ s⁻¹ | 5.81 nM | 0.00135 s⁻¹ | 232000 M⁻¹ s⁻¹ | ~6 ng/mL | ~8 ng/mL | 11.2 nM | ~10 ng/mL | – | – | anti-CLDN4 (hKM3900)/anti-CD137 scFv bispecific antibody hKM3900_3-34-j6 (bispecific antibody, human IgG1, kappa, L234A L235A, The heavy chain entry holds the hKM3900 heavy chain (L234A, L235A, P331G), the linker and the 3-34-j6 scFv) heavy: not shown light: DIQLTQSPSSLSASVGDRVTITCTASSTVSSTYLHWYQQKPGKAPKLLIYSTSNLASGVPSRFSGSGSGTDYTLTISSLQPEDFATYYCHQYHRSPPTFGQGTKLEIKRTVAAPSVFIFPPSDEQLKSGTASVVCLLNNFYPREAKVQWKVDNALQSGNSQESVTEQDSKDSTYSLSSTLTLSKADYEKHKVYACEVTHQGLSSPVTKSFNRGEC
– | – | – | – | – | – | ~4 ng/mL | – | – | – | – | – | anti-CLDN4 (hKM3900)/anti-CD137 scFv bispecific antibody hKM3900_L-3-34-j6 (bispecific antibody, scFv at the light chain C-terminus; not shown: human IgG1 heavy chain constant region; mutation positions by EU index; GS linker) heavy: EVQLVQSGAEVKKPGASVKISCKASGYTFTDYYMNWVRQAPGQGLEWMGDVVPNNGVPTYNQKFKGRVTITADKSTSTAYMELRSLRSEDTAVYYCARPHYYYAGRSGAMDYWGQGTLVTVSS light (part 1 of 2): DIQLTQSPSSLSASVGDRVTITCTASSTVSSTYLHWYQQKPGKAPKLLIYSTSNLASGVPSRFSGSGSGTDYTLTISSLQPEDFATYYCHQYHRSPPTFGQGTKLEIKRTVAAPSVFIFPPSDEQLKSGTASVVCLLNNFYPREAKVQWKVDNALQSGNSQESVTEQDSKDSTYSLSSTLTLSKADYEKHKVYACEVTHQGLSSPVTKSFNRGEC light (part 2 of 2): EVQLLESGGGLVQPGESLRLSCKAFGYTFTNHHINWVRQAPGKCLEWVGYINPYNDYTTFNDKFKDRFTLSVDKSKSTAYLQMNSLRAEDTAVYYCARTWGHWYFDLWGQGTLVTVSSGGGGSGGGGSGGGGSNIQMTQSPSSLSASVGDRVTITCRASQSVSSNLAWYQQKPGKAPKLLIYDSSTRATGVPSRFSGSGSGTDFTLTISSLQPEDFATYYCQQYNNWPPWTFGCGTKLEIKR
– | – | – | – | – | – | – | – | – | – | no binding | binds | 3D11 antibody (antibody, V domains shown, Purified from the hybridoma supernatant of a VelocImmune mouse: human variable regions with mouse constant regions (chimeric antibody); also called 3D11 clone) VH: QVQLGQSGPEVKKPGASVKVSCKASGYSFISYGISWVRQAPGQGLEWMGWSSVYNGNTNYVQKFQGRVTMTTDTSASTAYMELRSLRSDDAAVYYCARDSYSSGWSYYYSGMDVWGQGTTVTVSS VL: not shown
